Patent US20090068195A1

Legend:
[1] = target: native human IL-13 (human) (UniProt P35225); test: cell-based or functional assay
[2] = target: non-human primate (cynomolgus monkey) IL-13 (cynomolgus monkey); test: cell-based or functional assay
Sequence of non-human primate (cynomolgus monkey) IL-13 (cynomolgus monkey) (Q5I6E4 other isoform, or with tags, fused parts or gaps limits assumed): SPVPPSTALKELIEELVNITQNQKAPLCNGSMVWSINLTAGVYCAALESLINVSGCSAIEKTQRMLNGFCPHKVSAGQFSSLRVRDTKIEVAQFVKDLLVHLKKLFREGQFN

Sequence of native human IL-13 (human) (P35225 other isoform, or with tags, fused parts or gaps limits assumed): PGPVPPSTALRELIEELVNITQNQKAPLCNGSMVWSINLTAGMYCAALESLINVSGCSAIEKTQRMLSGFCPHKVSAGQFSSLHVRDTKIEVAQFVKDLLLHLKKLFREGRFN

STAT6 phosphorylation, IC50 [1]: 0.554 nM | CD23 expression, IC50 [2]: 0.308 nM
B1: antibody with the murine heavy chain of MJ2-7 and a humanized light chain (antibody, part only; not given: humanized light chain, V domains shown, part only)
VH: EVQLQQSGAELVKPGASVKLSCTGSGFNIKDTYIHWVKQRPEQGLEWIGRIDPANDNIKYDPKFQGKATITADTSSNTAYLQLNSLTSEDTAVYYCARSEENWYDFFDYWGQGTTLTVSS
